Test results taken from patent US20260055148A1 (USTAV ORGANICKE CHEMIE A BIOCHEMIE AV CR V V I, published 2026).
Numbering of substitutions follows the chain as printed. Names and notes keep the numbering of the source.

How the values were obtained:
His-C3d N1134A (human) [1] = molecular target: His-C3d N1134A (human) (UniProt P01024); test: SPR, relative to wild type C3d
His-C3d N1134A (human) [2] = molecular target: His-C3d N1134A (human) (UniProt P01024); test: SPR BIAcore T200, biotinylated ISG65-Avi immobilised, C3d N1134A as analyte
His-C3d N1134A (human) [3] = molecular target: His-C3d N1134A (human) (UniProt P01024); test: SPR BIAcore T200, biotinylated ISG65-Avi immobilised, C3d N1134A as analyte; koff1
His-C3d N1134A (human) [4] = molecular target: His-C3d N1134A (human) (UniProt P01024); test: SPR BIAcore T200, biotinylated ISG65-Avi immobilised, C3d N1134A as analyte; kon1
[5] = molecular target: T1, His-C3d-Avi, biotinylated (human complement C3d with N-terminal His-tag and C-terminal Avi-tag) (human, UniProt P01024 996-1303, site-specific biotinylation of the C-terminal Avi-tag); test: SPR BIAcore T200, biotinylated C3d-Avi immobilised, ISG65 as analyte; kon1
T1 construct: domain: C3d; SPR ligand for the ISG65 mutants; not shown: N-terminal His-tag (pET15b); C-terminal Avi-tag
T1 sequence (P01024 996-1303 limits assumed): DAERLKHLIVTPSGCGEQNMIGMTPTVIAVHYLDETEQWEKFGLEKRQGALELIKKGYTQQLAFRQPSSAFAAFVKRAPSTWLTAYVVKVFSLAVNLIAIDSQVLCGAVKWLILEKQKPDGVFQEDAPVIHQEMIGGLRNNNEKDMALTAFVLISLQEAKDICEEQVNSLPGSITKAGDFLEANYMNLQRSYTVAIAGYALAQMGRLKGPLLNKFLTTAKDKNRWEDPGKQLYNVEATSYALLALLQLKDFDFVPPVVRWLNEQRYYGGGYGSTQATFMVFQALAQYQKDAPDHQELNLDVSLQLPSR

[6] = molecular target: T2, C3b (human complement C3b) (human, UniProt P01024 23-667; P01024 749-1663); test: cell-based or functional assay
T2 sequence (P01024 23-667 limits assumed, chain 1 of 2): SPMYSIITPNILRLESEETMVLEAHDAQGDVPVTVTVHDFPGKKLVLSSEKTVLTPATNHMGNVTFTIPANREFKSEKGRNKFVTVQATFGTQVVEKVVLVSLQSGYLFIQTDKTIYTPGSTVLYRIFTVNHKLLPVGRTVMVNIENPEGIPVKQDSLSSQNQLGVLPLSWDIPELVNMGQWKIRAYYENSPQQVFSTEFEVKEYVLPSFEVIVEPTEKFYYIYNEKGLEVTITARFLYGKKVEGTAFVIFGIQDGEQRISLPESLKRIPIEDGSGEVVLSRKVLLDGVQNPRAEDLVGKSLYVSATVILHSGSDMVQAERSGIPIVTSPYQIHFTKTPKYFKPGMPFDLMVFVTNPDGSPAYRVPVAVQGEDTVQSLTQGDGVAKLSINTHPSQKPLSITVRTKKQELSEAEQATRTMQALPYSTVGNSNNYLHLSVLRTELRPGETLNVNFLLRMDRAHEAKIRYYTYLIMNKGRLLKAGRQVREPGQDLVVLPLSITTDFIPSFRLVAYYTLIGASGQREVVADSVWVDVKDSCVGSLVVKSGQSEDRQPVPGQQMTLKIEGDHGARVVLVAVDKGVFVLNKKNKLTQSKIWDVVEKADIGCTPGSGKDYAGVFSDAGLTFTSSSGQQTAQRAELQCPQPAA
T2 sequence (P01024 749-1663 limits assumed, chain 2 of 2): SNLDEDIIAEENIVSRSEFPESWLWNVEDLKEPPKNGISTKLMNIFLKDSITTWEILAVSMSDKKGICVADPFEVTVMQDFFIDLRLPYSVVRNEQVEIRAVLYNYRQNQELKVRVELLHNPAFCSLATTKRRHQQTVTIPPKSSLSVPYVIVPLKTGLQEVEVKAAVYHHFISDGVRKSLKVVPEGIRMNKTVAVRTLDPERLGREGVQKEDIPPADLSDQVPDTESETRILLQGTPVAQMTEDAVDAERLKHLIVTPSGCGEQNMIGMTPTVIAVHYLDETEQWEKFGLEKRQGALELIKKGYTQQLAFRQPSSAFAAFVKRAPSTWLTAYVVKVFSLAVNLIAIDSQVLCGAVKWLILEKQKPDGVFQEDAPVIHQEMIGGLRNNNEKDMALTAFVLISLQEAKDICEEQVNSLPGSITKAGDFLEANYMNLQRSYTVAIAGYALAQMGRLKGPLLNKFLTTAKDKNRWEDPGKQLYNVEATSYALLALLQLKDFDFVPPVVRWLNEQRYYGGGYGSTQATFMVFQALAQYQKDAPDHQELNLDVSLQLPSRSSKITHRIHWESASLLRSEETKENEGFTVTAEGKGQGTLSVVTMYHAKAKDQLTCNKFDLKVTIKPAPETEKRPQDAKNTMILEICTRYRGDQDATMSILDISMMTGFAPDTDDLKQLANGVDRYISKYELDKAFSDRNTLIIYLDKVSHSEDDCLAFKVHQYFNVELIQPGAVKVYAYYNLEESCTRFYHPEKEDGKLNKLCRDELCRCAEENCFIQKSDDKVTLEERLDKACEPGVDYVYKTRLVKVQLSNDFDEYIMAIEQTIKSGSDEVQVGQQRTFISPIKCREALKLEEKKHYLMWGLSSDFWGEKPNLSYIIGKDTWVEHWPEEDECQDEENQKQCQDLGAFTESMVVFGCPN

[7] = molecular target: T1, His-C3d-Avi, biotinylated (human …); test: SPR BIAcore T200, biotinylated C3d-Avi immobilised, ISG65 as analyte
[8] = molecular target: T1, His-C3d-Avi, biotinylated (human …); test: SPR BIAcore T200, biotinylated C3d-Avi immobilised, ISG65 as analyte; koff1
[9] = molecular target: T3, C3 (H2O) (human complement C3 with hydrolysed thioester) (human, UniProt P01024 23-667; P01024 672-1663); test: SPR BIAcore T200, biotinylated ISG65-Avi immobilised, C3 (H2O) as analyte; kon1
T3 construct: mature
T3 sequence (P01024 23-667 limits assumed, chain 1 of 2): as the sequence (P01024 23-667 limits assumed, chain 1 of 2) above
T3 sequence (P01024 672-1663 limits assumed, chain 2 of 2): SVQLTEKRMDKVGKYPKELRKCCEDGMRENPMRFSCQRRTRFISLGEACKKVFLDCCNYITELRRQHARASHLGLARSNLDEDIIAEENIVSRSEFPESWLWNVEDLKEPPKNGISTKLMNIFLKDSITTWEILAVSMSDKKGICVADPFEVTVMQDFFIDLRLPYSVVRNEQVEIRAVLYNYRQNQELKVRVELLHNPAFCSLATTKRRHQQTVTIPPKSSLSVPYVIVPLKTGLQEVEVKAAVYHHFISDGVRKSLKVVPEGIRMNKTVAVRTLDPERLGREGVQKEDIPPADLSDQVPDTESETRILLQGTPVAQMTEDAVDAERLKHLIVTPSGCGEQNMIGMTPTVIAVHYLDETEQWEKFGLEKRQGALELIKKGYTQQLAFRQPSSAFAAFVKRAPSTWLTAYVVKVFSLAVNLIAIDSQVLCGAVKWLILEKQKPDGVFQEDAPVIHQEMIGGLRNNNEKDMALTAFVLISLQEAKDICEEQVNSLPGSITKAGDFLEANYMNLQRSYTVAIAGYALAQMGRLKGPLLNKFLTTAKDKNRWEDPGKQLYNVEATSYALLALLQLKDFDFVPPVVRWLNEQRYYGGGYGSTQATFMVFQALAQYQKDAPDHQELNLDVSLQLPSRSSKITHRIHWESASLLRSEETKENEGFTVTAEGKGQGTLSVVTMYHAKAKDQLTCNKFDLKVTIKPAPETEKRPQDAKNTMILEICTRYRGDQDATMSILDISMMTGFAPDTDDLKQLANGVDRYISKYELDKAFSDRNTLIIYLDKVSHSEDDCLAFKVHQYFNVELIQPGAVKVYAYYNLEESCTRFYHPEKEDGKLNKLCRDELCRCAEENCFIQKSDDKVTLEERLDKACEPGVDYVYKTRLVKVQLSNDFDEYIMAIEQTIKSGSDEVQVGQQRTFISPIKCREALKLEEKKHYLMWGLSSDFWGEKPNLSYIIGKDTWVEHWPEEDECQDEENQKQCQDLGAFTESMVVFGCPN

[10] = molecular target: T2, C3b (human complement C3b); test: SPR BIAcore T200, biotinylated ISG65-Avi immobilised, C3b as analyte; koff1
[11] = molecular target: T4, C3a (ANA domain of human complement C3, released) (human, UniProt P01024 672-748); test: SPR BIAcore T200, biotinylated ISG65-Avi immobilised, C3a as analyte
T4 construct: domain: C3a
T4 sequence (P01024 672-748 limits assumed): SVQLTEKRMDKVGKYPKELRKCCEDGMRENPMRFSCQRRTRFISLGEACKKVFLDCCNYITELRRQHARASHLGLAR

[12] = molecular target: T5, C3c (fragment of human complement C3) (human, UniProt P01024 23-667; P01024 749-954; P01024 1321-1663); test: SPR, biotinylated ISG65 immobilised, C3c as analyte
T5 construct: domain: C3c
T5 sequence (P01024 23-667 limits assumed, chain 1 of 3): as the sequence (P01024 23-667 limits assumed, chain 1 of 2) above
T5 sequence (P01024 749-954 limits assumed, chain 2 of 3): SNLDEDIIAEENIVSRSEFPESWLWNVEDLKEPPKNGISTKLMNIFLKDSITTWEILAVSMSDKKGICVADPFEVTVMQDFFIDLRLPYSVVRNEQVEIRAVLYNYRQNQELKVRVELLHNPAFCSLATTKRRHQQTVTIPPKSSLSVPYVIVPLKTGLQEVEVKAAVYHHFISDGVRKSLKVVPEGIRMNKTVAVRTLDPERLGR
T5 sequence (P01024 1321-1663 limits assumed, chain 3 of 3): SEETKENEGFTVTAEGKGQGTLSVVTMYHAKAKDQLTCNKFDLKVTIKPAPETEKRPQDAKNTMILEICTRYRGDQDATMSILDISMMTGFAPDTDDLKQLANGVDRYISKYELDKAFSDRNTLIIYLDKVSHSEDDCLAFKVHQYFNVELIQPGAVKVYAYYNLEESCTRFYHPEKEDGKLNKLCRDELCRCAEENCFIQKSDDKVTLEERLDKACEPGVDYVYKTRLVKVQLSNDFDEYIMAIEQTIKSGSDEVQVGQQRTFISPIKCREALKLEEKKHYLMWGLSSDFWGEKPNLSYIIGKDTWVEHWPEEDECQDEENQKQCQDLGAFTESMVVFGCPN

[13] = molecular target: T6, His-C3d (recombinant human complement C3d, wild type) (human, UniProt P01024 996-1303); test: SPR BIAcore T200, biotinylated ISG65-Avi immobilised, C3d Wt as analyte
T6 construct: domain: C3d; Produced in E. coli; also called C3d Wt; TED; not shown: His-tag
T6 sequence (P01024 996-1303 limits assumed): as the sequence (P01024 996-1303 limits assumed) above

[14] = molecular target: T3, C3 (H2O) (human complement C3 with …); test: SPR BIAcore T200, biotinylated ISG65-Avi immobilised, C3 (H2O) as analyte
[15] = molecular target: T2, C3b (human complement C3b); test: SPR BIAcore T200, biotinylated ISG65-Avi immobilised, C3b as analyte; kon1
[16] = molecular target: T2, C3b (human complement C3b); test: SPR BIAcore T200, biotinylated ISG65-Avi immobilised, C3b as analyte
[17] = molecular target: T6, His-C3d (recombinant human complement …); test: SPR BIAcore T200, biotinylated ISG65-Avi immobilised, C3d Wt as analyte; koff1
[18] = molecular target: T7, Native human complement C3 (human, UniProt P01024 23-667; P01024 672-1663); test: SPR BIAcore T200, biotinylated ISG65-Avi immobilised, native C3 as analyte; kon1; kon1, first step of the two-step fit
T7 construct: mature; also called native C3; human C3
T7 sequence (P01024 23-667 limits assumed, chain 1 of 2): as the sequence (P01024 23-667 limits assumed, chain 1 of 2) above
T7 sequence (P01024 672-1663 limits assumed, chain 2 of 2): as the sequence (P01024 672-1663 limits assumed, chain 2 of 2) above

[19] = molecular target: T6, His-C3d (recombinant human complement …); test: SPR BIAcore T200, biotinylated ISG65-Avi immobilised, C3d Wt as analyte; kon1
[20] = molecular target: T6, His-C3d (recombinant human complement …); test: SPR, relative to wild type C3d
His-C3d L1109A [21] = molecular target: T8, His-C3d L1109A (human, UniProt P01024 996-1303); test: SPR, relative to wild type C3d
T8 construct: domain: C3d; not shown: His-tag
T8 sequence (P01024 996-1303 L1109A limits assumed): as the sequence (P01024 996-1303 limits assumed) above, with L114A counted along it

His-C3d E1110A = molecular target: T9, His-C3d E1110A (human, UniProt P01024 996-1303); test: SPR, relative to wild type C3d
T9 construct: domain: C3d; not shown: His-tag
T9 sequence (P01024 996-1303 E1110A limits assumed): as the sequence (P01024 996-1303 limits assumed) above, with E115A counted along it

[22] = molecular target: T7, Native human complement C3; test: SPR BIAcore T200, biotinylated ISG65-Avi immobilised, native C3 as analyte; overall KD of a two-step fit (kon1, kon2, koff1, koff2)
[23] = molecular target: T7, Native human complement C3; test: SPR BIAcore T200, biotinylated ISG65-Avi immobilised, native C3 as analyte; koff1; koff1, first step of the two-step fit
His-C3d L1109A [24] = molecular target: T8, His-C3d L1109A; test: SPR BIAcore T200, biotinylated ISG65-Avi immobilised, C3d L1109A as analyte
[25] = molecular target: T3, C3 (H2O) (human complement C3 with …); test: SPR BIAcore T200, biotinylated ISG65-Avi immobilised, C3 (H2O) as analyte; koff1
[26] = molecular target: T1, His-C3d-Avi, biotinylated (human …); test: SPR BIAcore T200, biotinylated C3d-Avi immobilised, ISG65 mutant as analyte; koff1
[27] = molecular target: T1, His-C3d-Avi, biotinylated (human …); test: SPR BIAcore T200, biotinylated C3d-Avi immobilised, ISG65 mutant as analyte
[28] = molecular target: T1, His-C3d-Avi, biotinylated (human …); test: SPR, relative to wild type ISG65
[29] = molecular target: T1, His-C3d-Avi, biotinylated (human …); test: SPR BIAcore T200, biotinylated C3d-Avi immobilised, ISG65 mutant as analyte; kon1
[30] = molecular target: T1, His-C3d-Avi, biotinylated (human …); test: SPR BIAcore T200, biotinylated C3d-Avi immobilised, ISG65 mutant as analyte; overall KD of a two-step fit (kon1, kon2, koff1, koff2)
[31] = molecular target: T1, His-C3d-Avi, biotinylated (human …); test: SPR BIAcore T200, biotinylated C3d-Avi immobilised, ISG65 mutant as analyte; kon1; kon1, first step of the two-step fit
[32] = molecular target: T1, His-C3d-Avi, biotinylated (human …); test: SPR BIAcore T200, biotinylated C3d-Avi immobilised, ISG65 mutant as analyte; koff1; koff1, first step of the two-step fit

Sequence of His-C3d N1134A (human) (P01024 996-1303, stated change not applied): as the sequence (P01024 996-1303 limits assumed) above

His-ISG65 18-363-Avi, biotinylated at the C-terminal Avi-tag (receptor)
ISG65 binding (%) (His-C3d N1134A (human) [1]): 25% | Kd (His-C3d N1134A (human) [2]): 28.6 nM | koff (His-C3d N1134A (human) [3]): 0.0542 s⁻¹ | kon (His-C3d N1134A (human) [4]): 1.89e+06 M⁻¹ s⁻¹

B1: His-ISG65 18-363 (extracellular domain of ISG65 of Trypanosoma brucei gambiense, Tbg.972.2.1600, with N-terminal hexa-histidine tag) (receptor)
chain: MGSSHHHHHHSSGLVPRGSHMLLVIGSEDNRVPGDKKLTKEGAAALCKMKHLADKVAKERSQELKDRTQNFAGYIEFELYRIDYWLEKLNGPKGRKDGYAKLSDSDIEKVKEIFNKAKDGITKQLPEAKKAGEEAGKLHTEVKKAAENARGQDLDDDTAKSTGLYRVLNWYCITKEERHNATPNCDGIQFRKHYLSVNRSAIDCSSTSYEENYDWSANALQVALNSWEDVKPKKLESAGSDKNCNIGQSSESHPCTMTEEWQTPYKETVEKLRELEDAYQRGKKAHDAMLGYANTAYAVNTKVEQEKPLTEVIAAAKEAGKKGAKIIIPAAAPATPTNSTKNDDSAPTEHVDRGIATNETQVEVGID
notes: Expressed in E. coli T7 shuffle cells; also called ISG65 wt
kon [5]: 1e+06 M⁻¹ s⁻¹ | relative AP50 of human plasma, day 0 [6]: 6 fold | Kd [7]: 27.9 nM | koff [8]: 0.04 s⁻¹

B2: His-ISG65 18-363-Avi, biotinylated at the C-terminal Avi-tag (receptor)
chain: B1 chain
modifications: site-specific biotinylation of the C-terminal Avi-tag
notes: SPR ligand captured on a Series S sensor chip CAP; also called ISG65-Avi; biotinylated ISG65; not shown: C-terminal Avi-tag
kon [9]: 942000 M⁻¹ s⁻¹ | koff [10]: 0.0212 s⁻¹ | Kd [11]: 18100 nM | binding result [12]: no binding (tested: 280 nM) | Kd [13]: 7.2 nM | Kd [14]: 18 nM | kon [15]: 262000 M⁻¹ s⁻¹ | Kd [16]: 80.9 nM | koff [17]: 0.0379 s⁻¹ | kon [18]: 81800 M⁻¹ s⁻¹ | kon [19]: 5.24e+06 M⁻¹ s⁻¹ | ISG65 binding (%) [20]: 100% | ISG65 binding (%) (His-C3d L1109A [21]): 45% | ISG65 binding (%) (His-C3d E1110A): 8% | Kd [22]: 129 nM | koff [23]: 0.0543 s⁻¹ | Kd (His-C3d L1109A [24]): 52.9 nM | koff [25]: 0.017 s⁻¹

B3: His-ISG65 18-363 T297A (receptor)
chain: B1 chain with T301A
notes: also called ISG65 T297A
koff [26]: 0.05 s⁻¹ | Kd [27]: 182 nM | koff2 [27]: 0.002 s⁻¹ | C3d binding (%) [28]: 15% | kon [29]: 171000 M⁻¹ s⁻¹

B4: His-ISG65 18-363 Y70A (receptor)
chain: B1 chain with Y74A
notes: also called ISG65 Y70A
Kd [30]: 78.2 nM | kon [31]: 118000 M⁻¹ s⁻¹ | koff [32]: 0.14 s⁻¹ | koff2 [27]: 0.58 s⁻¹ | C3d binding (%) [28]: 36%

B5: His-ISG65 18-363 W211A (receptor)
chain: B1 chain with W215A
notes: also called ISG65 W211A
Kd [30]: 66.8 nM | kon [31]: 320000 M⁻¹ s⁻¹ | koff [32]: 0.16 s⁻¹ | koff2 [27]: 0.39 s⁻¹ | C3d binding (%) [28]: 42%

B6: ISG65 M2 (thermostable mutant of the ISG65 extracellular domain 18-363 with N-terminal His-tag) (receptor)
chain: MGSSHHHHHHSSGLVPRGSHMLLVIGSEDNRVPGDKKLTKEGAAALCKMKHLADKVAKERSQELKDRTQNFAGYIEFELYRIDYWLEKLNGPKGRKDGYAKLSDSDIKKVKEIFEKAKDGITKQLPEAKKAAEEAEKLHQEVKEAAEKARGQDLDDDTAKSTGLYRVLNWYCITKEERHNATPNCDGIQFRKHYLSVNRSAIDCSSTSYEENYDWSANALQVALNSWEDKKPKKLESAGSDKNCNIGQSSESHPCTMTEEWQTHYKETIEKLRELEEAYQRGKKAHDDMLGYANTAYAVNTKVEQEKPLSEVIAAAKEAGKKGAKIIIPAAAPATPTNSTKNDDSAPTEHVDRGIATNETQVEVGID
relative AP50 of human plasma, day 0 [6]: 15 fold
